In paper PMC1500868 (Nucleic Acids Research, 2006):

Molecular target: T1, GST-SAP30L (human, UniProt Q9HAJ7 1-183)
T1 sequence (looked up): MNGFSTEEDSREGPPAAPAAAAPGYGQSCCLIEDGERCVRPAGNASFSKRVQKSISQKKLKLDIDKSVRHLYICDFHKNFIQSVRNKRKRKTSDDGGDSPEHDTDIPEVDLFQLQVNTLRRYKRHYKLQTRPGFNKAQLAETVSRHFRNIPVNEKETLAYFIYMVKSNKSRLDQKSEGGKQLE
Experiment: pull-down

B1: in vitro translated N-terminally deleted SAP30L (SAP30L 61–183) (domain or fragment, human, UniProt Q9HAJ7 61-183, looked up)
chain: KLDIDKSVRHLYICDFHKNFIQSVRNKRKRKTSDDGGDSPEHDTDIPEVDLFQLQVNTLRRYKRHYKLQTRPGFNKAQLAETVSRHFRNIPVNEKETLAYFIYMVKSNKSRLDQKSEGGKQLE
modifications: 35S-methionine label
  fold change of interaction against full-length SAP30L: > 2 fold
